From patent US20250145697A1 (WASHINGTON UNIVERSITY, published 2025)

Assays:
[1] = target: T1, heat-induced aggregates of ApoE4 (human, UniProt P02649 19-317); test: ELISA: ApoE4 incubated at 40 C for 24 hr on the plate, antibody titrated, OD650
T1 construct: mature; aggregated state of the recombinant protein; also called ApoE4 incubated at 40 C for 24 hr; heat-treated ApoE4
Experimental: 1: untreated ApoE4. 2: ApoE4 that has been incubated at 40° C. for 24 hr. Supernatant(S) and pellet (P) from ultracentrifugation were resolved on SDS-PAGE and stained by Coomassie blue. (D) Binding of HJ156 to different preparations of ApoE4 loaded at the same concentration on the ELISA plate. Sup of untreated: Supernatant fraction of untreated ApoE4 from ultracentrifugation. Sup/Pel of 24h 40C: Supernatant/pellet fraction of ApoE4 incubated at 40° C. for 24 hour. (E) Binding of HJ156 to untreated and 40° C. incubated ApoE4 with and without denaturation by 1% SDS or 4M guanidine HCl.
In order to test whether HJ151 and HJ156 bind to some form of ApoE in the brain, unfixed frozen brain sections from APPPS1/APOE4 or APPPS1/EKO mice using HJ151 and HJ156 (FIG. 38A). The presence of Aβ plaques was confirmed with Aβ immunostaining using anti-Aβ antibody HJ3.4 on the sections from the same brain. […] Next, the ability of HJ156 to bind to an aggregated form of ApoE induced by incubation at 40° C. was queried. The binding of untreated ApoE to HJ151, HJ153 or HJ156 was compared to the binding of ApoE incubated at 40° C. to HJ151, HJ153 or HJ156. HJ153 bound to untreated ApoE or ApoE incubated at 40° C. similarly while HJ151 and HJ156 preferentially bound to ApoE incubated at 40° C. (FIG. 38B). […] Solubilization of the ApoE aggregates reduced their binding to HJ156. […]

[2] = target: T1, heat-induced aggregates of ApoE4; test: ELISA: total ApoE4 incubated at 40 C for 24 h loaded on the plate, HJ156 titrated, OD650
Target sequence in this assay (P02649 19-317 C130R): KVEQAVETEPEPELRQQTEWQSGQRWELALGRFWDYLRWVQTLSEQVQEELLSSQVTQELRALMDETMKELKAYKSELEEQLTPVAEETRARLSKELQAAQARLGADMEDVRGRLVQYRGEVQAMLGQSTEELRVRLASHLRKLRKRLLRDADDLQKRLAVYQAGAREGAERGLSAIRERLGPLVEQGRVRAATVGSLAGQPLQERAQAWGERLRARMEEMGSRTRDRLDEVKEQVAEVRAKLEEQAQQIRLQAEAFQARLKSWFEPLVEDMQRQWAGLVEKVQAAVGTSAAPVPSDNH

[3] = target: T1, heat-induced aggregates of ApoE4; test: ELISA: pellet fraction of ApoE4 incubated at 40 C for 24 h loaded at the same concentration on the plate, HJ156 titrated, OD650
murine ApoE = target: T2, murine ApoE (mouse, UniProt P08226 19-311); test: Western blot of mouse brain lysates
T2 sequence (looked up): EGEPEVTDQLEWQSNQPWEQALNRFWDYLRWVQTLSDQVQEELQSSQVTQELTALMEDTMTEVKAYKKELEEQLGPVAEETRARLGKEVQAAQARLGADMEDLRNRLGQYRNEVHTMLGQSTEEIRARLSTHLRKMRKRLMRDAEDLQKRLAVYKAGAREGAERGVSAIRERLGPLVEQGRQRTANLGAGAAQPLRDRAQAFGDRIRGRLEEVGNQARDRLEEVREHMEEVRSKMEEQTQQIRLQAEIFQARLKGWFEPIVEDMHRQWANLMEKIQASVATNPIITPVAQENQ
Text: Brain lysates from apoE KO mice or mice expressing human apoE3, human apoE4 or murine apoE were immunoblotted with HJ151, HJ152, HJ153, and HJ154. A commercial apoE antibody GA-50 was used as a positive control.

[4] = target: T3, recombinant alipidated human ApoE2 (human, UniProt P02649 19-317); test: ELISA: untreated ApoE2 coated at 0.5 ug/ml, antibody titrated, HRP goat anti-mouse IgG, OD650
T3 construct: mature; full length recombinant protein made in E. coli or bought
Experimental: (§1) The aggregated ApoE was induced by incubating ApoE at 1 mg/ml concentration at 40° C. for 24 hours. The aggregates then were recovered in the pellet fraction following ultracentrifugation at 186,000 g for 1 hour. For ELISA, the untreated ApoE or heat-induced aggregates of ApoE were coated directly to ELISA plates at 0.5 μg/ml overnight at 4° C. After three washes with PBS, the wells were blocked with 1% BSA-PBS for 1 hour at room temperature with shaking at 500 rpm. The blocked wells were washed once with PBS and subsequently loaded with antibodies at serial concentrations (starting at 100 nM with 5-fold dilutions thereafter). Bound antibodies were detected with HRP-labeled goat anti-mouse IgG (Jackson Immunoresearch) and visualized with TMB substrate at OD₆₅₀ (reaction stopped with BioFX stop solution).

[5] = target: T4, heat-induced aggregates of ApoE2 (human, UniProt P02649 19-317); test: ELISA: pellet of heat-aggregated ApoE2 coated at 0.5 ug/ml, antibody titrated, HRP goat anti-mouse IgG, OD650
T4 construct: mature; aggregated state of the recombinant protein; also called heat treated ApoE2
Experimental: as §1

T4 sequence (P02649 19-317 R176C): as the sequence (P02649 19-317 C130R) above, with R112C, R158C counted along it
T3 sequence (P02649 19-317 R176C): as the sequence (P02649 19-317 C130R) above, with R112C, R158C counted along it

B1: HJ151 (antibody, V domains shown)
VH: QVQLQQSGAELVRPGASVTLSCKASGYTFTDYEMHWVKQTPVHGLEWIGVIDPEKGGTAYNQKFKGKAILTADKSSSTAYMDLRSLTSEDSAVYYCLKDSWGQGTTLTVSS
VL: DVLMTQTPLSLPVSLGDQASISCRSSQTIVHSDGNTYLEWYLQKPGQSPKLLIYKVSNRFSGVPDRFSGSGSGTYFTLKISRVEAEDLGVYYCFQGSHVPCTFGGGTKLEIKR
notes: murine monoclonal antibody from hybridoma; also called HJ151B (biotinylated)
- EC50 (read off the curve) [1]: ~0.2 nM

B2: HJ156 (antibody, V domains shown)
VH: QVQLQQSGPELVKPGASVKISCKASGYIFTDYYINWVKRRPGQGLEWIGWIFPGSGVSYYNEQFKGKATLTVDKPSNTAYIFLSRLTSEDSAVYFCARYYSSSPFAYWGQGTLVTVSA
VL: DVLMTQTPLSLPVSLGDQASISCRSSQNIIHSNGNTYLEWFLQRPGQSPELLIYKVSNRFSGVPDRFSGSGSGTDFTLKISRVEAEDLGVYYCFQGSHVPYTFGGGTKLEIKR
notes: murine monoclonal antibody from hybridoma; also called HJ156B (biotinylated)
- EC50 (read off the curve) [2]: ~0.1 nM
- EC50 (read off the curve) [3]: ~0.1 nM

B3: HJ154 (antibody, V domains shown)
VH: QVQLQQPGTEFVMSGASVMLSCKASGYIFTNYWLHWVKQRPGHGLEWIGEIDPSDSYSICNDNFKGKSTLTVDKSSSTAYMQLSSLTSEDSAVYYCAGSLGRVGLAYWGQGTLVTVST
VL: QIVLTQSPAIMSASPGEKVTMSCSASSSVSNMYWYQQKPGSSPKSWIYRTSNLASGVPARFSGSGSGTSYSLTISNMEAEDAATYYCQHYQNYPLTFGAGTKLELKR
notes: murine monoclonal antibody from hybridoma; also called HJ154B (biotinylated)
- binding result (murine ApoE): no binding
- EC50 (read off the curve) [4]: ~0.2 nM
- EC50 (read off the curve) [5]: 0.16 to 0.2 nM
